2 molecules from publication PMC9723616 can be followed below.

For this data set, the target named is T1, FemX (UniProt Q9EY50 1-336).
T1 sequence: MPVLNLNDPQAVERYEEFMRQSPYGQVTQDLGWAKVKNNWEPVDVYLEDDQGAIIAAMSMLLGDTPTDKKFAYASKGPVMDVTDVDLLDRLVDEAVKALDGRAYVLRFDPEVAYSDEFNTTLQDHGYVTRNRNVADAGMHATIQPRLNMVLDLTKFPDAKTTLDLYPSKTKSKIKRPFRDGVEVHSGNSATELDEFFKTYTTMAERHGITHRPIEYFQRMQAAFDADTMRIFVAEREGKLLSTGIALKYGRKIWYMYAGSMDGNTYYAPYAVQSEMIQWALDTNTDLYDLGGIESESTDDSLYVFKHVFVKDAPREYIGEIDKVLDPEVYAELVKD
Description: competition.

B1: compound 17 (2'F-RNA stem peptidyl-helix, 24 nt) (XNA)
RNA: GGGGCCUUAGCUCAGGCUCCACCA
modifications: 2'F-RNA in stem (14 F); dC at penultimate position (pdCpA); 2'-azido-2'-deoxy A76 joined by triazole to UDP-MurNAc-pentapeptide
The Ki is the equilibrium dissociation constant of an inhibitor or competing ligand from its target. Molecule B1 came in with a Ki of 0.397 ± 0.107 nM.

B2: compound 20 (2'F-ANA stem peptidyl-helix, 24 nt) (XNA)
RNA: GGGGCCUUAGCUCAGGCUCCACCA
modifications: 2'F-ANA in stem (14 F); dC at penultimate position (pdCpA); 2'-azido-2'-deoxy A76 joined by triazole to UDP-MurNAc-pentapeptide
Turning to B2, the Ki came to 221 ± 10 nM.
